Reference: patent US20210355175A1 (University of Washington, published 2021)

T1: 2′-1′_6-residue_linker
T1 construct: also called 1′-2′; 1′-2′ with a 6-residue linker
T1 chain: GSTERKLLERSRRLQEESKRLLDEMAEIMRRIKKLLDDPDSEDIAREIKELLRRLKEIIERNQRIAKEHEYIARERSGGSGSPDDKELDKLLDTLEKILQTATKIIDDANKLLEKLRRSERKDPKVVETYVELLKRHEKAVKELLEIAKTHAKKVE

T2: DHD37_1:234 chain b
T2 construct: Single-helix monomer of the backbone-permuted 3+1 heterodimer
T2 chain: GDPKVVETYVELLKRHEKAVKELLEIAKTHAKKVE

T3: DHD39 chain b
T3 construct: In the NOR gate it was fused to the Gal4 DBD; also called 10′; DHD_39 b
T3 chain: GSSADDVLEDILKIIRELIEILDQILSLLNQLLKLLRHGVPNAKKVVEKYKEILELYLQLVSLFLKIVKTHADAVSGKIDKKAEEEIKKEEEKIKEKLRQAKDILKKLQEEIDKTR

T4: DHD9 chain b
T4 construct: also called 9b; 9_b
T4 chain: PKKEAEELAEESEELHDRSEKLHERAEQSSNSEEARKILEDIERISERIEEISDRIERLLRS

T5: DHDSC_9-13-37 chain 13b
T5 chain: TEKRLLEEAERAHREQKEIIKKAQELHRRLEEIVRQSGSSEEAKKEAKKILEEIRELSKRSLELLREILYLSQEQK

T6: DHD127 chain b
T6 construct: also called DHD_127 b
T6 chain: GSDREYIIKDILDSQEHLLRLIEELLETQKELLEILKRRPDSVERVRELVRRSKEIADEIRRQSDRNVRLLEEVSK

T7: DHD17 chain b
T7 construct: Co-expressed input protein of the NOT gate; also called 8′
T7 chain: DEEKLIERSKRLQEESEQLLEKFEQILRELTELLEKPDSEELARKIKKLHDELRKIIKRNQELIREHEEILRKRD

B1: DHD37_ABXB chain a (designed binder)
chain: DSDEHLKKLKTFLENLRRHLDRLDKHIKQLRDILSENPEDERVKDVIDLSERSVRIVKTVIKIFEDSVRKKE
notes: In Y2H it was fused to Gal4 AD or DBD
B2: DHD37_1:234 chain a (designed binder)
chain: DSDEHLYKLKTFLENLRRHLDRLDKHIKQLRDILSENPEDERVKDAIDLSERSVRIVKTVIKIFEDSVRKKEKRPIDKRDDKELDKLLDTLEKILQTATKIIDDANKLLEYLRR
notes: Three-helix monomer of the backbone-permuted 3+1 heterodimer
B3: DHD39 chain a (designed binder)
chain: DHSRKLEEILDRLRKHVKRLLEHLRELLSLVKENPEDKDLVEVLELSLAILRRSLEAVEAFLKSVTKKDPDDEDLRRKADEIRKEVEEIKKSLAEVEKEIYKLK
notes: also called 10; DHD_39 a
B4: DHDSC_9-13-37 scaffold, chain 9a-13a-37a (designed binder)
chain: PKEEARELIRKQKELIKEQKKLIKEAKQKSDSRDAERIWKRSREINRESKKINKRIKELIKSGSEGSGSEGSGSTKEDILERQRKIIERAQEIHRRQQEILEELERIIRKPGSSEEAMKRMLKLLEESLRLLKELLELSEESAQLLYEQRGSEGSGSEGSGSDSDEHLKKLKTFLENLRRHLDRLDKHIKQLRDILSENPEDERVKDVIDLSERSVRIVKTVIKIFEDSVRKKE
B5: DHD127 chain a (designed binder)
chain: GSPRSYLLKELADLSQHLVRLLERLVRESERVVEVLERGEVDEEELKRLEDLHRELEKAVREVRETHREIRERSR
notes: also called DHD_127 a
B6: DHD13_XAAA chain b (designed binder)
chain: GTEKRLLEEAERAHREQKEIIKKAQELHRRLEEIVRQSGSSEEAKKEAKKILEEIRELSKRSLELLREILYLSQEQKGSLVPR
notes: also called 9′
B7: DHD13_XAAA chain a (designed binder)
chain: GTKEDILERQRKIIERAQEIHRRQQEILEELERIIRKPGSSEEAMKRMLKLLEESLRLLKELLELSEESAQLLYEQR
B8: DHD37_ABXB chain b (designed binder)
chain: GSDDKELDKLLDTLEKILQTATKIIDDANKLLEKLRRSERKDPKVVETYVELLKRHEKAVKELLEIAKTHAKKVE
notes: Used in Y2H as a co-expressed input or fused to Gal4 AD/DBD; also called 1′; 1′ (b)
B9: DHD17 chain a (designed binder)
chain: DRKDLLKRNIKLLDRHLKILDTILKLLEKLSELLKKSSSEEVVKEYKKILDEIRKLLEESKEIHKESKEILERES
notes: In the NOT gate it was fused to both Gal4 AD and DBD; also called DHS 17 a

Experiments:
2′-1′_6-residue_linker [1] = target: T1, 2′-1′_6-residue_linker; experiment: calculated from the cooperativity factor fitted to native MS data
Excerpt: (§1) We studied the cooperativity of the induced dimerizer system in vitro using native mass spectrometry (FIG. 11F). […] We define cooperativity as the ratio of the affinities in the presence and absence of the other monomer, which in our model directly relates to the free energy of opening of the dimerizer (c=e^ΔG^ₒₚₑₙ^{/RT}, see supplementary materials).
We experimentally estimated K₁ using native MS experiments.

2′-1′_6-residue_linker [2] = target: T1, 2′-1′_6-residue_linker; experiment: thermodynamic model matched to native MS titration data
Excerpt: as §1

2′-1′_6-residue_linker [3] = target: T1, 2′-1′_6-residue_linker; experiment: native mass spectrometry, 10 µM of 1 and 1′-2′; bound from the detection limit of 0.0375 µM
DHD37_ABXB chain b = target: B8; experiment: individual yeast two-hybrid experiments
DHD37_1:234 chain b = target: T2, DHD37_1:234 chain b; experiment: X-ray crystal structure of the heterodimer
DHD39 chain b = target: T3, DHD39 chain b; experiment: individual yeast two-hybrid experiments
DHD9 chain b = target: T4, DHD9 chain b; experiment: co-expression in E. coli, one b monomer His-tagged
DHDSC_9-13-37 chain 13b = target: T5, DHDSC_9-13-37 chain 13b; experiment: co-expression in E. coli, one b monomer His-tagged
DHD127 chain b = target: T6, DHD127 chain b; experiment: X-ray crystal structure of the heterodimer
DHD37_ABXB chain a = target: B1; experiment: individual yeast two-hybrid experiments
DHD13_XAAA chain b = target: B6; experiment: yeast two-hybrid competition by the co-expressed unfused monomer
yeast two-hybrid = target: the molecule itself; experiment: yeast two-hybrid
DHD17 chain b = target: T7, DHD17 chain b; experiment: yeast two-hybrid

With B1 the Kd (2′-1′_6-residue_linker [1]) was 9.91 mM, the “cooperativity c (ratio of the affinities in the presence and absence of the other monomer)” value (2′-1′_6-residue_linker [2]) was 991000 and the Kd (2′-1′_6-residue_linker [3]) was 2.65 mM. B1: binds (DHD37_ABXB chain b).

B2: binds (DHD37_1:234 chain b).

B3: binds (DHD39 chain b).

B4: binds (DHD9 chain b); binds (DHDSC_9-13-37 chain 13b).

B5: binds (DHD127 chain b).

B6: binds (DHD37_ABXB chain b).

B7: binds (DHD39 chain b); binds (DHD37_ABXB chain a); binds (DHD13_XAAA chain b).

B8: binds (DHD39 chain b).

B9: binds (yeast two-hybrid); binds (DHD17 chain b).
